Data taken from publication PMC10687025, “Endosomal Arl4A attenuates EGFR degradation by binding to the ESCRT-II component VPS36” (Nature Communications, 2023).

Experiments:
Test in all cases: pull-down; 2 μg GST fusion protein on glutathione beads with 2 μg His-tagged Arl4A in 1 ml binding buffer (20 mM Tris-HCl pH 8.0, 150 mM NaCl, 5 mM MgCl2, 1 mM EDTA, 1 mM DTT, 10% glycerol, 1% Triton X-100), 1 h at 4 °C; anti-His blot
Conditions in all cases: both partners purified
[1] = biological target: T1, His-tagged Arl4A T51N (UniProt P40617 1-200, T51N)
T1 construct: Arl4A, mutant T51N; also called His-Arl4A T51N; source: recombinant, purified (Ni-NTA resin)
T1 sequence (looked up): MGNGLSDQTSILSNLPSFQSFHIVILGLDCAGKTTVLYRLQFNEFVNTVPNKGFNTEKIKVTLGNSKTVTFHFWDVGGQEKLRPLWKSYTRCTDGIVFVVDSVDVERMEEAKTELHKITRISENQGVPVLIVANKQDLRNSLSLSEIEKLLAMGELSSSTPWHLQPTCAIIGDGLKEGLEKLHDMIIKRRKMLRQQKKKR

[2] = biological target: T2, His-tagged Arl4A Q79L (UniProt P40617 1-200, Q79L)
T2 construct: Arl4A, mutant Q79L; source: recombinant, purified (Ni-NTA resin)
T2 sequence (looked up): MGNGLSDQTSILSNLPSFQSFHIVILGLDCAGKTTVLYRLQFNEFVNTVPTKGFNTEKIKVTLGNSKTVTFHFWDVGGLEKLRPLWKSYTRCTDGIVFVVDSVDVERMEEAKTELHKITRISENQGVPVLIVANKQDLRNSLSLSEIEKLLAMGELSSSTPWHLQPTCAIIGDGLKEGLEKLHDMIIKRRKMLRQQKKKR

[3] = biological target: T3, His-tagged Arl4A WT (UniProt P40617 1-200)
T3 construct: Arl4A, wild type; also called His-Arl4A; source: recombinant, purified (Ni-NTA resin)
T3 sequence (looked up): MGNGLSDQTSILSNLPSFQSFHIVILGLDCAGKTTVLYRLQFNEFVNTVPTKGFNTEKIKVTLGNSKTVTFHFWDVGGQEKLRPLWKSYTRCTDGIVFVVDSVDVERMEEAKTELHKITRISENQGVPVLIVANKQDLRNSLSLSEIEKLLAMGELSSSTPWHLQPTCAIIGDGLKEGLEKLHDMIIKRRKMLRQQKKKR

Measured: binding result

B1: GST-VPS36 (201–386) (domain or fragment, UniProt Q86VN1 201-386, looked up)
chain: KIKDKQGDITEDETIRFKSYLLSMGIANPVTRETYGSGTQYHMQLAKQLAGILQVPLEERGGIMSLTEVYCLVNRARGMELLSPEDLVNACKMLEALKLPLRLRVFDSGVMVIELQSHKEEEMVASALETVSEKGSLTSEEFAKLVGMSVLLAKERLLLAEKMGHLCRDDSVEGLRFYPNLFMTQS
notes: source: E. coli BL21, purified on glutathione Sepharose 4B beads
binds: all assays above
